Measurements as given in patent US20240317872A1.

Legend:
human 4-1BB (human) [1] = target: human 4-1BB (human) (UniProt Q07011); experiment: flow cytometry on CHO-K1 cells expressing 4-1BB
human 4-1BB (human) [2] = target: human 4-1BB (human) (UniProt Q07011); experiment: cell-based or functional assay

human 4-1BB (human), sequence (Q07011 24-255): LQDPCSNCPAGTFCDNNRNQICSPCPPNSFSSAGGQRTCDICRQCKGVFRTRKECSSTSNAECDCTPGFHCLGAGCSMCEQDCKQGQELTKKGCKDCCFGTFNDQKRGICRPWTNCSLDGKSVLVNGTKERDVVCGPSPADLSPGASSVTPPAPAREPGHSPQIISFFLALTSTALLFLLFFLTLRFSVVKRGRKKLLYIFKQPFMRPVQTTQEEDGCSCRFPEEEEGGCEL

WBP342-BMK3.hIgG4 (antibody)
EC50 (human 4-1BB (human) [1]): 0.123 nM | Top (MFI) (human 4-1BB (human) [1]): 1120 MFI | reporter gene assay (NFkB luciferase), EC50 (human 4-1BB (human) [2]): 0.33 nM | reporter gene assay (NFkB luciferase), Top (RLU) (human 4-1BB (human) [2]): 1.09e+06 RLU
